The numbers were not newly measured in publication PMC4489983, which cites them from elsewhere.

For data set [1], the target named is NIPP1 (Homo sapiens) (UniProt Q12972).
Data set [2] deals with spinophilin (Homo sapiens) (UniProt Q96SB3).
For data set [3], the target named is PNUTS (Homo sapiens) (UniProt Q96QC0).
PNUTS (Homo sapiens), sequence (Q96QC0 whole entry): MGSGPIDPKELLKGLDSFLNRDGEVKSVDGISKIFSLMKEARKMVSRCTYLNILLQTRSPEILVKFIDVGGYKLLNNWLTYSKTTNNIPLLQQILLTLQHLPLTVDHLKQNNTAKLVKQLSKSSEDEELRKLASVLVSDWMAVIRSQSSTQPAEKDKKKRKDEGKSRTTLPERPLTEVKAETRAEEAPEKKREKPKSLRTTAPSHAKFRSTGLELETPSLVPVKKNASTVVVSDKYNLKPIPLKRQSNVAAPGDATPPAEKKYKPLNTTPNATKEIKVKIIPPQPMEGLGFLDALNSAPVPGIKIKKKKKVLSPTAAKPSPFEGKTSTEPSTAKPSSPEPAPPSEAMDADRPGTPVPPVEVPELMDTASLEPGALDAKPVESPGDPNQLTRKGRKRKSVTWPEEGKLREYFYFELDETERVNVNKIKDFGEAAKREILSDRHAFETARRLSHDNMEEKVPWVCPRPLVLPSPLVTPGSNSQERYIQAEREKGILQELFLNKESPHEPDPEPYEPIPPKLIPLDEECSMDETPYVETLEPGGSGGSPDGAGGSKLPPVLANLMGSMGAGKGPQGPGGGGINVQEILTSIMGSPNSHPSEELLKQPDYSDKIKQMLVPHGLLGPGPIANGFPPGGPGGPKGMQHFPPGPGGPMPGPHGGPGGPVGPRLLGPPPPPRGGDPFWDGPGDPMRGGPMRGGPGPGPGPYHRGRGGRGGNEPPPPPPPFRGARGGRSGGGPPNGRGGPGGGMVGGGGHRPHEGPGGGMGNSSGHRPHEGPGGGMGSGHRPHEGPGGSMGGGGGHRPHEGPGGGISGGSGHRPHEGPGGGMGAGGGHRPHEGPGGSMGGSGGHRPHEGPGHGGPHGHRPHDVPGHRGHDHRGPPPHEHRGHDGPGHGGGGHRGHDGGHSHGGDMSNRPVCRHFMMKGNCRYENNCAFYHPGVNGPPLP

PP1α, sequence (P62136 2-330): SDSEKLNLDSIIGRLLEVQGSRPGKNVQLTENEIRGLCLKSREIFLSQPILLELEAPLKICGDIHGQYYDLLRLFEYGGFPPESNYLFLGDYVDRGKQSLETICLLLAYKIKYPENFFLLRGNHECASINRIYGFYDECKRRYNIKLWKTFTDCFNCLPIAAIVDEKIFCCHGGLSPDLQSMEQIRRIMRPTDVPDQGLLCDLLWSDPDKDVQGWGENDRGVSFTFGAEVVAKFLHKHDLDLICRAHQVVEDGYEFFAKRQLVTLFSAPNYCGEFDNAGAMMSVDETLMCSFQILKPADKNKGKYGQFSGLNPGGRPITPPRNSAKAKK
NIPP1 (Homo sapiens), sequence (Q12972 whole entry): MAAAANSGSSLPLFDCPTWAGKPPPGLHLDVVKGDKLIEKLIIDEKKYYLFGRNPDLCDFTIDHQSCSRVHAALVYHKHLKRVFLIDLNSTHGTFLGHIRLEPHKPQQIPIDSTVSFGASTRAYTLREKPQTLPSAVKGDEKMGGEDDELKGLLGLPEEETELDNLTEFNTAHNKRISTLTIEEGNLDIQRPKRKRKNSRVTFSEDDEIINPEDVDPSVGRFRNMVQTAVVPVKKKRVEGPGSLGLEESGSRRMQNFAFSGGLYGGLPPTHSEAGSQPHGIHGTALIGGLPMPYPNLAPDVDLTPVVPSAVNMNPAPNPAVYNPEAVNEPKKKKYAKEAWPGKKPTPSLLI
spinophilin (Homo sapiens), sequence (Q96SB3 whole entry): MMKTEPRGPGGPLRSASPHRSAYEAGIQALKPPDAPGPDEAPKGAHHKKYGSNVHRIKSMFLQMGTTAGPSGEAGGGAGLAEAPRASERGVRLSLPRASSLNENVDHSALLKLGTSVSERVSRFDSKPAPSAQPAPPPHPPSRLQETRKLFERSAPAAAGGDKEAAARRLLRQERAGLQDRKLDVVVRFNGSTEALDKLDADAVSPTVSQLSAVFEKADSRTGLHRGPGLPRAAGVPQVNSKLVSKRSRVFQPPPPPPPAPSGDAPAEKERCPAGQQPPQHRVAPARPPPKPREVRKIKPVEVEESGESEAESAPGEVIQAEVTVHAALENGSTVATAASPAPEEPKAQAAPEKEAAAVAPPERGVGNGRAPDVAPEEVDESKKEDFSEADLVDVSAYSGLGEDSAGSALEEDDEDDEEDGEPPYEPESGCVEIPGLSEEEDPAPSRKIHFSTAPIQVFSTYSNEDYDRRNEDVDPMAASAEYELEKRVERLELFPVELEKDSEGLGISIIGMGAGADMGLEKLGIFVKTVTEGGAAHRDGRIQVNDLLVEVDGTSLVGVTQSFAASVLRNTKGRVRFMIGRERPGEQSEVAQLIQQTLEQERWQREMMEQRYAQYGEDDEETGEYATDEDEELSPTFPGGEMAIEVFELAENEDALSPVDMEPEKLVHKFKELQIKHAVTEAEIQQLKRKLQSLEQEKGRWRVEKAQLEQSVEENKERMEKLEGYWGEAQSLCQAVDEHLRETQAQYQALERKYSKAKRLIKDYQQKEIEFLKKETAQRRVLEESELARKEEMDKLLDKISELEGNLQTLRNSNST

In the case of PP1α (from UniProt P62136), the results for the Kd in data set [1], in data set [2] and in data set [3] were 73 nM, 9.3 nM and 8.7 nM, respectively.
